B1: STX5 (parent)
chain: ESTIVELGSIFQQLAHMVKEQEET

Variants of: B1
Assay: protein stability index of a GFP-peptide fusion (GPS, HEK-293T) (PSI 1-6); higher = more stable
Settings: c terminus: a fixed tail appended
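Also: lentivirally expressed fusions sorted by FACS into six bins by GFP to DsRed ratio, PSI derived from sequencing read proportions per bin multiplied by bin number.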

Variant	protein stability index
ESTIVELGSIFQQLDHMVKEQEET	4.28
ESTIVELGSIFQQYAHMVKEQEET	1.81
ESTIVELGSIFQQIAHMVKEQEET	2.09
ESTIVELGSIFQQMAHMVKEQEET	3.77
ESTIVELGSIFQQCAHMVKEQEET	4.42
ESTIVELGSIFQQKAHMVKEQEET	5.2
ESTIVELGSIFQQFAHMVKEQEET	1.69
ESTIVELGSIFQQGAHMVKEQEET	4.64
ESTIVELGSIFQQQAHMVKEQEET	4.75
ESTIVELGSIFQQWAHMVKEQEET	3.17
ESTIVELGSIFQQPAHMVKEQEET	4.93
ESTIVELGSIFQQSAHMVKEQEET	5.26
ESTIVELGSIFQQAAHMVKEQEET	4.31
ESTIVELGSIFQQHAHMVKEQEET	4.11
ESTIVELGSIFQQTAHMVKEQEET	4.78
ESTIVELGSIFQQNAHMVKEQEET	5.24
ESTIVELGSIFQQVAHMVKEQEET	2.81
ESTIVELGSIFQQDAHMVKEQEET	5.05
ESTIVELGSIFQQEAHMVKEQEET	5.33
ESTIVELGSIFQQRAHMVKEQEET	5.32
ESTIVELGSIFQQLAHMVIEQEET	1.59
ESTIVELGSIFQQLAHMVMEQEET	1.9
ESTIVELGSIFQQLAHMVHEQEET	2.44
ESTIVELGSIFQQLAHMVREQEET	1.85

Variant	protein stability index
ESTIVELGSIFQQLAHMVGEQEET	2.76
ESTIVELGSIFQQLAHMVFEQEET	2.31
ESTIVELGSIFQQLAHMVYEQEET	1.17
ESTIVELGSIFQQLAHMVAEQEET	1.81
ESTIVELGSIFQQLAHMVQEQEET	2.32
ESTIVELGSIFQQLAHMVPEQEET	4.08
ESTIVELGSIFQQLAHMVDEQEET	4.35
ESTIVELGSIFQQLAHMVTEQEET	2.41
ESTIVELGSIFQQLAHMVSEQEET	1.97
ESTIVELGSIFQQLAHMVCEQEET	1.41
ESTIVELGSIFQQLAHMVNEQEET	2.95
ESTIVELGSIFQQLAHMVEEQEET	2.92
ESTIVELGSIFQQLAHMTKEQEET	3.45
ESTIVELGSIFQQLAHMIKEQEET	2.41
ESTIVELGSIFQQLAHMKKEQEET	4.16
ESTIVELGSIFQQLAHMAKEQEET	3.27
ESTIVELGSIFQQLAHMDKEQEET	5.09
ESTIVELGSIFQQLAHMNKEQEET	4.38
ESTIVELGSIFQQLAHMMKEQEET	2.79
ESTIVELGSIFQQLAHMSKEQEET	4.14
ESTIVELGSIFQQLAHMWKEQEET	2.22
ESTIVELGSIFQQLAHMCKEQEET	2.44
ESTIVELGSIFQQLAHMEKEQEET	4.64
ESTIVELGSIFQQLAHMYKEQEET	2.44

Variant	protein stability index
ESTIVELGSIFQQLAHMHKEQEET	3.73
ESTIVELGSIFQQLAHMRKEQEET	3.65
ESTIVELGSIFQQLAHMGKEQEET	4.6
ESTIVELGSIFQQLAHMLKEQEET	1.8
ESTIVELGSIFQQLAHMQKEQEET	2.37
ESTIVELGSIFQQLAHMPKEQEET	4.45
ESTIVELGSIFQQLAHMFKEQEET	1.81
ESTIVELGSIFQQLAHMVKEQFET	2.88
ESTIVELGSIFQQLAHMVKEQYET	1.39
ESTIVELGSIFQQLAHMVKEQQET	2.65
ESTIVELGSIFQQLAHMVKEQIET	2.7
ESTIVELGSIFQQLAHMVKEQGET	1.06
ESTIVELGSIFQQLAHMVKEQPET	1.69
ESTIVELGSIFQQLAHMVKEQKET	2
ESTIVELGSIFQQLAHMVKEQCET	2.4
ESTIVELGSIFQQLAHMVKEQLET	5.42
ESTIVELGSIFQQLAHMVKEQWET	1.53
ESTIVELGSIFQQLAHMVKEQNET	1.98
ESTIVELGSIFQQLAHMVKEQTET	1.39
ESTIVELGSIFQQLAHMVKEQAET	2.75
ESTIVELGSIFQQLAHMVKEQDET	1.97
ESTIVELGSIFQQLAHMVKEQSET	2.44
ESTIVELGSIFQQLAHMVKEQHET	1.3
ESTIVELGSIFQQLAHMVKEQMET	2.89

Variant	protein stability index
ESTIVELGSIFQQLAHMVKEPEET	3.29
ESTIVELGSIFQQLAHMVKEAEET	1.67
ESTIVELGSIFQQLAHMVKENEET	2.12
ESTIVELGSIFQQLAHMVKEHEET	1.97
ESTIVELGSIFQQLAHMVKESEET	1.81
ESTIVELGSIFQQLAHMVKELEET	2.67
ESTIVELGSIFQQLAHMVKEEEET	3.05
ESTIVELGSIFQQLAHMVKEDEET	2.4
ESTIVELGSIFQQLAHMVKECEET	1.91
ESTIVELGSIFQQLAHMVKEGEET	2.75
ESTIVELGSIFQQLAHMVKEVEET	1.73
ESTIVELGSIFQQLAHMVKEWEET	3.33
ESTIVELGSIFQQLAHMVKEYEET	2.23
ESTIVELGSIFQQLAHMVKETEET	2.88
ESTIVELGSIFQQLAHMVKEFEET	1.98
ESTIVELGSIFQQLAHMVKEMEET	1.87
ESTIVELGSIFQQLAHMVKEKEET	2.6
ESTIVELGSIFQQLAHMVKEREET	1.36
ESTIVELGSIFQQLAHMVKEIEET	1.64
ESTIVELGSIFQWLAHMVKEQEET	1.88
ESTIVELGSIFQYLAHMVKEQEET	2.37
ESTIVELGSIFQVLAHMVKEQEET	2.16
